From paper PMC10602967, “Modulatory role of RNA helicases in MBNL-dependent alternative splicing regulation”

Experiments:
[1] = target: T1, rDDX5 (UniProt P17844 1-614); test: EMSA; slightly preferred over RNA-ctrl; no defined complex band; Kd only in figure; EMSA: 15 nM RNA, 50 mM NaCl, 50 mM KCl, 50 mM Tris-HCl, 1 mM MgCl2 (pH not stated), 37 C 15 min, 10 ul, 6% native PA gel; Kd by one-site fit with Bmax = 100; settings: protein: commercial; label: 5'-biotin; 3'-Cyanine 5; single-stranded
[2] = target: T1, rDDX5; test: EMSA; slightly lower preference than ss(UGCU)4; no defined complex band; Kd only in figure; EMSA: 15 nM RNA, 50 mM NaCl, 50 mM KCl, 50 mM Tris-HCl, 1 mM MgCl2 (pH not stated), 37 C 15 min, 10 ul, 6% native PA gel; Kd by one-site fit with Bmax = 100; settings: protein: commercial; label: 5'-biotin; 3'-Cyanine 5; single-stranded

T1 sequence (P17844 whole entry): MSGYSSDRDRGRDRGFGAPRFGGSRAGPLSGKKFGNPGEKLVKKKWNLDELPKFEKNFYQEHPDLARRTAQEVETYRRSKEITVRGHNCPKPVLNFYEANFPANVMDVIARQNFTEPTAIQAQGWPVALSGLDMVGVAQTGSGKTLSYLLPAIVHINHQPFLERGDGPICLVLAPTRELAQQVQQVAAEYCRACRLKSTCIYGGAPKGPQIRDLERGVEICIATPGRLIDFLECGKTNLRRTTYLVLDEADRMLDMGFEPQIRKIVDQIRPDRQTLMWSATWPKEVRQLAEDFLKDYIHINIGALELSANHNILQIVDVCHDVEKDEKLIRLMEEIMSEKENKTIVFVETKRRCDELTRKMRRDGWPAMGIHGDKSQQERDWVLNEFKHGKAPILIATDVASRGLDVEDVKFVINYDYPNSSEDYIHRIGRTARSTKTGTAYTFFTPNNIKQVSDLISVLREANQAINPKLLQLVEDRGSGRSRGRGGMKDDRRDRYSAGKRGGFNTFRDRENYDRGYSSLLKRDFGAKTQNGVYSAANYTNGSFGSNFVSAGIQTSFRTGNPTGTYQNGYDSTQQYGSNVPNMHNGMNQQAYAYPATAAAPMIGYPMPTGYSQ

Binder	binding result [1]	binding result [2]
UUUUUUUUGCUUGCUUGCUUGCUUUUUUUU (ssRNA) [RNA-ss(UGCU)4]	binds	
UUUUUUUUGUCUGGUCCCUCGUUUUUUUU (ssRNA) [RNA-ctrl]		binds
